T1: Class II MHC (mouse, on splenocytes and lymphoid organs) (mouse, UniProt P14434 24-256; P14483 28-265)
T1 construct: whole, on cells; also called Class II MHC products; Class II MHC molecules
T1 sequence (MHC II alpha, looked up): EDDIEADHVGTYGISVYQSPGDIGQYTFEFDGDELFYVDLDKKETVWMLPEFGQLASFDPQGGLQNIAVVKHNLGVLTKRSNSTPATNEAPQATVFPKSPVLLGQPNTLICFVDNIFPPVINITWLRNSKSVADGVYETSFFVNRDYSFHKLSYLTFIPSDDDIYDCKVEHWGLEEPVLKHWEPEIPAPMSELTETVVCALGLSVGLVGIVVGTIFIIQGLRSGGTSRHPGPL
T1 sequence (MHC II beta, looked up): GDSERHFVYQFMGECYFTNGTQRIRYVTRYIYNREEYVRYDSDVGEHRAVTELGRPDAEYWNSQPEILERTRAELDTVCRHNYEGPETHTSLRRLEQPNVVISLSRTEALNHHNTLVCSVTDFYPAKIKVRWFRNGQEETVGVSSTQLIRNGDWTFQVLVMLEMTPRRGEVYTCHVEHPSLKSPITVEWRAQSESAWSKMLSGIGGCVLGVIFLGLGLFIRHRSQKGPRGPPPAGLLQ


Assays:
[1] = target: T1, Class II MHC (mouse, on splenocytes and …); assay: FACS, splenocytes stained in vitro with different concentrations of Alexa647-labeled DC8 monomer or dimer; reference DC8 monomer
Protocol: (§1) FIGS. 3A-3D (FIGS. 3A-3B) show dimers that are able to stain their targets with increased efficiency compared to their corresponding monomers; for FIG. 3A: cells were stained in vitro with the indicated concentrations of Alexa647-labeled VHH monomers or dimers; for FIG. 3B: equal amount of DC8 monomer and DC8-dimer is injected IV. 2 h p.i., the mice are euthanized and spleens are excised for two-photon imaging. (FIG. 3C) Equal amount of DC8 with or without PEG, both equipped with Texas Red is injected IV. 3 h p.i., the mice are euthanized and spleens are excised for two-photon imaging. (FIG. 3D) Equal amount of DC8 with or without PEG (0.4 nmols), all equipped with Alexa647 is injected IV. 3 h p.i., the mice are euthanized and spleen is excised. Cells were harvested and analyzed with FACS.
(§2) Four sortase substrates were designed and synthesized for production of dimers or PEGylated VHHs (FIG. 1). The substrates either contain two bioorthogonal handles or a handle and a fluorophore. The Alexa647-labeled substrate was designed such that the reaction products could be used in FACS experiments to estimate relative in vitro binding affinities. […] For DC8 (anti Class II), splenocytes were stained with different concentrations of monomers and dimers and analyzed by FACS. […] The in vivo binding characteristics of the VHH dimers versus monomers were evaluated. […]

[2] = target: T1, Class II MHC (mouse, on splenocytes and …); assay: FACS of spleen cells harvested 3 h after i.v. injection of Alexa647-labeled VHH into B6 mice; reference non-PEGylated DC8
Excerpt: Specificity was established by blocking the targets of these VHHs by introduction of unlabeled VHHs as competitors prior to imaging. […] To further confirm the specificity of the dimers in the absence of competing VHHs, MHC II^{-/-} and CD11b^{-/-} mice were imaged. No PET signals were detected in lymphoid organs, further confirming the specificity of both dimers (FIGS. 4E-4G). […] These experiments helped set the stage to explore ability of VHH dimers to image tumors. Two types of tumors were imaged with the developed bivalent VHHs by engraftment of mice with the B16 melanoma or the pancreatic tumor cell line panc02. Both the dimers readily detected the lymphoid organs as well as the B16 melanoma tumor or the panc02 graft. Upon excision, the panc-tumors were no more than ˜1-2 mm in diameter, showing the method to be sensitive. Postmortem biodistribution analysis correlated well with the FACS and two-photon results as well (FIGS. 5A-5B). It was examined whether circulatory half-life could be manipulated to further improve the signal to noise ratio. PEGylation of VHHs results in increased circulatory half-life, where the increase correlates with the size of the attached PEG group^{[15]}. VHHs sortagged with substrate 2 or 3 were reacted with DBCO-functionalized PEG (5 kDa, 10 kDa or 20 kDa) to yield the final PEGylated VHHs (FIGS. 2E-2F). B6 mice received 5 μg of PEGylated VHH and were euthanized 3 h later, followed by dissection of lymph nodes and spleen for FACS and two-photon microscopy.

[3] = target: T2, CD11b (mouse, on the CD11b+ mutuDC dendritic cell line and on myeloid cells in vivo) (mouse, UniProt P05555 17-1153); assay: FACS, CD11b+ mutuDC dendritic cell line stained in vitro with Alexa647-labeled DC13 monomer or dimer; reference DC13 monomer
T2 construct: whole, on cells; On cells CD11b is paired with CD18
Protocol: as §1, §2

T2 sequence (P05555 17-1153): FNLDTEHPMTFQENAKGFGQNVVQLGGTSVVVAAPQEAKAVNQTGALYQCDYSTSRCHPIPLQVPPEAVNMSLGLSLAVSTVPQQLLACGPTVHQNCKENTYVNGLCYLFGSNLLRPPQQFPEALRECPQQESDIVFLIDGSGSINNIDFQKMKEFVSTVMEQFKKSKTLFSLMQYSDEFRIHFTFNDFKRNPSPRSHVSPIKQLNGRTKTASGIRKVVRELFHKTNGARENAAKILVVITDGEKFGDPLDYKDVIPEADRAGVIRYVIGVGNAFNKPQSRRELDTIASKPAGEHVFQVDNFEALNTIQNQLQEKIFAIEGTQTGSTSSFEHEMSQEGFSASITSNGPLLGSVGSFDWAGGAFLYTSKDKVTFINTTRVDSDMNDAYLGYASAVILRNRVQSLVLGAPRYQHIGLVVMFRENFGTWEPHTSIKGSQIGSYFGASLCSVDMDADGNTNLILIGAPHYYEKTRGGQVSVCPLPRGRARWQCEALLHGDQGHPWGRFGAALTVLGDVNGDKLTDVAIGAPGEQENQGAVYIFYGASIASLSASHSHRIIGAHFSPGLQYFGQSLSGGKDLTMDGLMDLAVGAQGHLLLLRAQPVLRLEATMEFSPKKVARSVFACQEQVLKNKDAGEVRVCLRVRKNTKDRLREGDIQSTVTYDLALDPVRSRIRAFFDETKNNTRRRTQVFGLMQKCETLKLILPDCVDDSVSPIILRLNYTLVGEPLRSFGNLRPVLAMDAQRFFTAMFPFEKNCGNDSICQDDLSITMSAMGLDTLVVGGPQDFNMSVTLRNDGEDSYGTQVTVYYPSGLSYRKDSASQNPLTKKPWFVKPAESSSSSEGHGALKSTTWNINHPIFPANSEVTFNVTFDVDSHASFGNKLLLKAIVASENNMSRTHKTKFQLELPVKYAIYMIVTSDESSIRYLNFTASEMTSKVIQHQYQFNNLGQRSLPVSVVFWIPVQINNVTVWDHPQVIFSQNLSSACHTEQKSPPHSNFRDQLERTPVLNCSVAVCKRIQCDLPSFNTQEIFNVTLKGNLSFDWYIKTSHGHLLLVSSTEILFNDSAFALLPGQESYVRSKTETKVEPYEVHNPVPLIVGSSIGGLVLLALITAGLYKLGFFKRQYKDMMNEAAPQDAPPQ

Binder | percent increase in staining versus non-PEGylated DC8 [2] | other results
DC8 dimer (bivalent anti Class II MHC VHH, two DC8 joined via their C-termini by sortase and DBCO-azide click chemistry) (VHH, C-terminal (Gly)3 continues as -PEG12-Cys(Alexa647, Texas Red or TCO/18F-tetrazine)-PEG5-Lys(azide); the azide is clicked to the DBCO of the other chain; C-terminal Cys carries maleimide-DBCO, clicked to the azide of the other chain, Label differs by assay (Alexa647, Texas Red, 18F); also called 18F-DC8 dimer; anti Class II MHC dimer) VHH 1: QVQLQESGGGLVQPGGSLRLSCTASGFTFSTYYMSWVRKAPGKGPEWVSVMNSSGGDTRYADFVKGRFTISRDNAKNTLYLQMNSLKPEDTALYYCAQGRSDIYPTFTRGQGTQVTVSS VHH 2: QVQLQESGGGLVQPGGSLRLSCTASGFTFSTYYMSWVRKAPGKGPEWVSVMNSSGGDTRYADFVKGRFTISRDNAKNTLYLQMNSLKPEDTALYYCAQGRSDIYPTFTRGQGTQVTVSS | – | fold better binding than the corresponding monomer [1]: ~3.3 fold
DC8-alexa647-PEG-10 kDa (site-specifically PEGylated DC8) (VHH, C-terminal (Gly)3 continues as -PEG12-Cys(Alexa647, Texas Red or TCO/18F-tetrazine)-PEG5-Lys(azide); the azide is clicked to DBCO-PEG 10 kDa, Alexa647 form used for FACS, 18F form for PET and biodistribution; also called 10 kDa PEG-conjugated DC8; PEGylated DC8-Alexa647) VHH: QVQLQESGGGLVQPGGSLRLSCTASGFTFSTYYMSWVRKAPGKGPEWVSVMNSSGGDTRYADFVKGRFTISRDNAKNTLYLQMNSLKPEDTALYYCAQGRSDIYPTFTRGQGTQVTVSS | ~100% | –
DC8-alexa647-PEG-5 kDa (site-specifically PEGylated DC8) (VHH, C-terminal (Gly)3 continues as -PEG12-Cys(Alexa647, Texas Red or TCO/18F-tetrazine)-PEG5-Lys(azide); the azide is clicked to DBCO-PEG 5 kDa, Alexa647 form used for FACS, 18F form for PET and biodistribution; also called 5 kDa PEG-conjugated DC8; PEGylated DC8-Alexa647) VHH: QVQLQESGGGLVQPGGSLRLSCTASGFTFSTYYMSWVRKAPGKGPEWVSVMNSSGGDTRYADFVKGRFTISRDNAKNTLYLQMNSLKPEDTALYYCAQGRSDIYPTFTRGQGTQVTVSS | ~30% | –
DC8-Alexa647-PEG-20 kDa (site-specifically PEGylated DC8) (VHH, C-terminal (Gly)3 continues as -PEG12-Cys(Alexa647, Texas Red or TCO/18F-tetrazine)-PEG5-Lys(azide); the azide is clicked to DBCO-PEG 20 kDa, Alexa647 form used for FACS, 18F form for PET and biodistribution; also called 20 kDa PEG-conjugated DC8; PEGylated DC8-Alexa647) VHH: QVQLQESGGGLVQPGGSLRLSCTASGFTFSTYYMSWVRKAPGKGPEWVSVMNSSGGDTRYADFVKGRFTISRDNAKNTLYLQMNSLKPEDTALYYCAQGRSDIYPTFTRGQGTQVTVSS | ~220% | –
DC13 dimer (bivalent anti CD11b VHH, two DC13 joined via their C-termini by sortase and DBCO-azide click chemistry) (VHH, C-terminal (Gly)3 continues as -PEG12-Cys(Alexa647, Texas Red or TCO/18F-tetrazine)-PEG5-Lys(azide); the azide is clicked to the DBCO of the other chain; C-terminal Cys carries maleimide-DBCO, clicked to the azide of the other chain, Label differs by assay (Alexa647, 18F); also called DC13-dimer-Alexa647; 18F-DC13 dimer) VHH 1: QVQLQESGGGLVQTGGSLRLSCAASGVDFNWYSMGWFRQAPGKEREYVASIDQGGELDYAISVKGRFTISRDNAKNMVYLQMNSLKPEDTAVYYCAADFSGRGASNPDKYKYWGQGTQVTVSS VHH 2: QVQLQESGGGLVQTGGSLRLSCAASGVDFNWYSMGWFRQAPGKEREYVASIDQGGELDYAISVKGRFTISRDNAKNMVYLQMNSLKPEDTAVYYCAADFSGRGASNPDKYKYWGQGTQVTVSS | – | fold better binding than the corresponding monomer [3]: ~2.3 fold

Source: patent publication US20240325575A1 (WHITEHEAD INSTITUTE FOR BIOMEDICAL RESEARCH, published 2024)
